According to IntAct's records for PubMed 15901771:

B1: Potassium voltage-gated channel protein eag (Drosophila melanogaster (Fruit fly)), Q02280 (parent)
chain: MPGGRRGLVAPQNTFLENIIRRSNSQPDSSFLLANAQIVDFPIVYCNESFCKISGYNRAEVMQKSCRYVCGFMYGELTDKETVGRLEYTLENQQQDQFEILLYKKNNLQCGCALSQFGKAQTQETPLWLLLQVAPIRNERDLVVLFLLTFRDITALKQPIDSEDTKGVLGLSKFAKLARSVTRSRQFSAHLPTLKDPTKQSNLAHMMSLSADIMPQYRQEAPKTPPHILLHYCAFKAIWDWVILCLTFYTAIMVPYNVAFKNKTSEDVSLLVVDSIVDVIFFIDIVLNFHTTFVGPGGEVVSDPKVIRMNYLKSWFIIDLLSCLPYDVFNAFDRDEDGIGSLFSALKVVRLLRLGRVVRKLDRYLEYGAAMLILLLCFYMLVAHWLACIWYSIGRSDADNGIQYSWLWKLANVTQSPYSYIWSNDTGPELVNGPSRKSMYVTALYFTMTCMTSVGFGNVAAETDNEKVFTICMMIIAALLYATIFGHVTTIIQQMTSATAKYHDMLNNVREFMKLHEVPKALSERVMDYVVSTWAMTKGLDTEKVLNYCPKDMKADICVHLNRKVFNEHPAFRLASDGCLRALAMHFMMSHSAPGDLLYHTGESIDSLCFIVTGSLEVIQDDEVVAILGKGDVFGDQFWKDSAVGQSAANVRALTYCDLHAIKRDKLLEVLDFYSAFANSFARNLVLTYNLRHRLIFRKVADVKREKELAERRKNEPQLPQNQDHLVRKIFSKFRRTPQVQAGSKELVGGSGQSDVEKGDGEVERTKVFPKAPKLQASQATLARQDTIDEGGEVDSSPPSRDSRVVIEGAAVSSATVGPSPPVATTSSAAAGAGVSGGPGSGGTVVAIVTKADRNLALERERQIEMASSRATTSDTYDTGLRETPPTLAQRDLIATVLDMKVDVRLELQRMQQRIGRIEDLLGELVKRLAPGAGSGGNAPDNSSGQTTPGDEICAGCGAGGGGTPTTQAPPTSAVTSPVDTVITISSPGASGSGSGTGAGAGSAVAGAGGAGLLNPGATVVSSAGGNGLGPLMLKKRRSKSRKAPAPPKQTLASTAGTATAAPAGVAGSGMTSSAPASADQQQQHQSTADQSPTTPGAELLHLRLLEEDFTAAQLPSTSSGGAGGGGGSGSGATPTTPPPTTAGGSGSGTPTSTTATTTPTGSGTATRGKLDFL
partner: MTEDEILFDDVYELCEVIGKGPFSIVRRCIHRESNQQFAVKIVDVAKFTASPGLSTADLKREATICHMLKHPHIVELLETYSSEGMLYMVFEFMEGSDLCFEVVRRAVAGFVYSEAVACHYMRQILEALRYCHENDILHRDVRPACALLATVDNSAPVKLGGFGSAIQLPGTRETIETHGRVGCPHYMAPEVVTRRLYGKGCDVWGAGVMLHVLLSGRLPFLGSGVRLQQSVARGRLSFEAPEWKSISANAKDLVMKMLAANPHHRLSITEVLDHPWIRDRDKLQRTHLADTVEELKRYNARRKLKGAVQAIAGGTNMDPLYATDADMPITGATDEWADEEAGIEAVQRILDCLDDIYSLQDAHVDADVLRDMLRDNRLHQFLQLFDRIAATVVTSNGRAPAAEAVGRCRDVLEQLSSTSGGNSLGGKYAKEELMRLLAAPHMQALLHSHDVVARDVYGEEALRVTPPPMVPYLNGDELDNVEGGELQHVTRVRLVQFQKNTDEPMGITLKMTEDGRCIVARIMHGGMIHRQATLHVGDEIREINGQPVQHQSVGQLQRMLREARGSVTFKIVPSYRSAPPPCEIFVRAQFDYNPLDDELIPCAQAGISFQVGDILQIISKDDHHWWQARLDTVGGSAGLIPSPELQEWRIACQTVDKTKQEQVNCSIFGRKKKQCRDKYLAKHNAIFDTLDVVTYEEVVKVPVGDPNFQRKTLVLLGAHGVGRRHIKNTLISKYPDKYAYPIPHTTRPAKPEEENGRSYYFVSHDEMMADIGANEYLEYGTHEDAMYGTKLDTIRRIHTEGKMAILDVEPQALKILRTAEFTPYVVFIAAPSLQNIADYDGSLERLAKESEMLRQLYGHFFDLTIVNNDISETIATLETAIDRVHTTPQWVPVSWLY

Variants of: B1
Conditions: with cskp_drome CASK

effect of a mutation on the interaction	Variant
decreasing interaction	R1037L
decreasing interaction	K1040M
